# Results published in the DeepSol protein solubility set.
# Test: soluble on expression in E. coli; label from the status in PepcDB or PDB records
row,Sequence,soluble on expression in E. coli
1,MSLSASRAIKERDSRSHIKVLFPSMPYVYVSRLINEGLVRLAENDQGWEYSLATDCPKLSPTLYECTLRQGVRFQDGTPFNADSVIKNFDYFLAQPFNYTDIHRSLKAVEKVSPYKIRLILSQPYGMLFRDLARIFFYSDAYLRQYGWGGAETGANIKSAGSYGLGPYILVEGMITGRKQTPKAILKANPYYWEKGFPKIETITVFTELETQSALESLLEREGELDFMPIPFNKKIETLLSPYTKLIITPSTNNFTIYFNLHKHDSKVFDPKVRQALNCALNQENLLNFTYKKEGRPNTGAYTHEDCPFSLRELHEILRGLKFKVATQDSLLFLWRGIEYQLSRYGVELEFLLTTSEKEIYDLAQKNHQQTQEWDMLIQGTQDWYGRHPWPIFIRYQEGNPWSFVTGDIKMREAINQLFRHEQGTPEFEALCQTIIQRAKEKAYMLFIPTPHAVYGMNKELHFTPHGIGLQPLWKAEVTSEHWSLRGDKPYPESLQKPILPQREGHHHHHH,not soluble
2,MKVLNELRQFYPLDELLRAAEIPRSTFYYHLKALSKPDKYADVKKRIGEIYHENRGRYGYRRVTLSLHREGKQINHKAVQRLMGTLSLKAAIKVKRYRSYRGEVGQTAPNVLQRDFKATRPNEKWVTDVTEFAVNGRKLYLSPVIDLFNNEVISYSLSERPVMNMVENMLDQAFKKLNPHEHPVLHSDQGWQYRMRRYQNILKEHGIKQSMSRKGNCLDNAVVECFFGTLKSECFYLDEFSNISELKDAVTEYIEYYNSRRISLKLKGLTPIEYRNQTYMPRV,not soluble
3,MSLNDGNAMGQVIQIDEARIRDHLGEMVRGTVEETLNAMLEAEADQLCGAGRYERSPARQDTRAGSYERTLQTKAGDVNLKVPKLRRQTFETAIIERYRRRESSVEEALIEMYLAGISVRRVEDITEALWGTRVSPSTVSNLNKKIYAKIEAWRNRRIEGEHPYLYLDGIVMKRSWAGEVRNVSLLVASAVNAEGFREILGICEGAKEDKSGWSSFLRHLVDRGLKGVQLVVSDACRGLVESVADYLPEARYQRCMVHFYRNVFSHVPSTRVHEVSHMLKAIHAQESRAAADEKARTVIADLRASRMAKAADLVEQAVHETLAYYAFPDIHWRKIRTNNPLERIMKEIRRRTRVVGAFPDGQSCLNLAAARLRHIAGTAWSTKCYMNMRPLYQPQLSETGAVAEGHHHHHH,soluble
4,MGSDKIHHHHHHAGCETEGEDIDMRFETCTVSFVQQELRSSYEVYFNGEKSINRSTSVKKNSTLKLEVYKIGEKQPELSQEITLDNSKDIELLKLVGRDIAISSSLEEYTTFTPIISYFNPNTDLYTVTFNNGELSNKVKNYIAEADLSGTLKIVRNVDGQVLYEQDMTIMPEGQFSLMQLSDTDFLDISDGEEADPESRQYTKIRFFYTADAFPGHDKLKLVVYLMDLDAMQFTAPIATIDLEAGKISEYIQIDNDAFGQGVVNGVYDLIDESGNMIVNNLEHFNTSIPIGTSDNKFMTFRFMDPSHQGGDNVQCNFILSTPWK,not soluble
5,MAHHHHHHMASVDTQWAIKSILQLGHHHLRHGAETTSSSSSCLVRPTSPPFRSASKAVQVTAMPRLMRASCDPSYVILLAKRPSGIAGVSLRPGNRVPWTGLPAAASSLVSAPCSKKTRLLASYLQRRGFATIRPVATDTHSSPSQFRPVQRSMPLLLHTSHLIGWKLNDASPAFPVYAHTLAELQQLRSSDVAALKPQHCLIANEYCEWDNWREVLGEPGWDLFSADEDAVERLLQDGLAISALEEEAGLYPVEVL,not soluble
6,MGSDKIHHHHHHMPGRAGGCTRNTGAPVNRQDRAHAFLQRALEAQAALPVDHGLMRDLFAGTGDDSRLSLSEVGELVSRDPSLAVRILSLANSAYYGLQAEVTTVGRAVTVLGMREVRNLVLALGFSSVARMHPLPDRFCTAGYWLHQLRVAAFCRIIAAGTEDLDPEMLYTAGLLHDIGKLFIAALAPDDWLGIRRLARQESLPDCKAEERWWGLDHALAGARVLAYWQLPAALTEPISWHHGPHFADAAHARGAGAVQLADALLLAFERGTPPPAAALQLLKEYTADAGRLQMALEAQFAGERIGQLAALLG,not soluble
7,MLDVPVLLAAVSPDSPCGDDLEYDAAFLELERIAQGQPERQMGDAVLPAEPPEWPRVRALASELFGRSKDLRVANLLLQSNVALDGLDGLADGLLLVRELLGQYWDGVYPLLDADDDNDPTFRINALTGLVAEPLLQLVWAIPLVRSRAFGPVNLRAALNAAGLQRFASETLSPEQIAGAFADADADALAATRRALDGAQEHALAIESGVAERVGSAQGLDLGPLRQLLRQALQVFDLYGPQGAGESLAPGAEAVADEQVGAAPVAAVAAPAPRASGEIANREDVLRQLDRLLEYYVRHEPSSPVPVLLKRAKTLVTADFAEIVRNLIPDGISQFETLRGPESE,not soluble
8,MSLEYNDVVEAVISALKKAHTELPEDVVTAIKKAYDSEENDIAKRNLEAILKNIEAAKKLGVPMCQDTGIPVFFVEVGRELCLDFDLKEAIVEGVRKATAEIPLRPNAVHPITRENSGDNTGLGIPQINVELVKGDELRMVVMPKGAGSENVSALKMMLPTQVDKIKDFVVETVKNAGGKPCPPIFVGVGVGSTFDGAAKLAKKALLRNVLEMNDFELELLEAVNELGIGAMGLGGKYTALAVLVEFGHCHTASLPVAVNIQCWANRRAEVVLREGGSHHHHHH,soluble
9,MSLSWADKYRPKNIDDVILNSEIRKQITEWIESWKEGIPKKRSLILYGSQGTGKTTTAYAIAGTFGVPVVEMNASDQRNRDSMRGTALMASLYGDLFVESAKRPSKVILIDEADNMFERGGDTGGIYELSKIIKNSANPIVITMNDIFEFRKKNYASDVISASLTIEMKQYGRKLDKNYNEFRRNIKARLIFILKNEGYTLPDQVVDRIIDRNMPDIRSMINDLEASAVSGTNISDEGHHHHHH,soluble
10,MAHHHHHHMLRSTLTSLNTFLTSSVATPPISVIRTGPKWWADPERMVRQKLMYFTLGVDQLPLRRTAVIQRDLQRFHMCKPPPRVGDSTGYKRSRAAQLNTWYRRIQYQEYHMQHLFTRHVWGLLRVYPGNTTKIQGKADDGYVGYDSVPFHRYNRAPLPFPARELYERRK,not soluble
11,MTSNKNVKTLDEAIRELTRAKAILDSARPTAVNLVWATSRMLTLAKNAVENGNAKTINELIDLMKVEAKRIFDEEYDAEIQMGLYGLEKLNDSDT,not soluble
12,MAGDQELELRFDVPLYTLAEASRYLVVPRATLATWADGYERRPANAPAVQGQPIITALPHPTGSHARLPFVGIAEAYVLNAFRRAGVPMQRIRPSLDWLIKNVGPHALASQDLCTDGAEVLWRFAERSGEGSPDDLVVRGLIVPRSGQYVFKEIVEHYLQQISFADDNLASMIRLPQYGDANVVLDPRRGYGQPVFDGSGVRVADVLGPLRAGATFQAVADDYGVTPDQLRDALDAIAA,soluble
13,MGGMPITSFKFLYYFQIDDGDEETDIYLSPKEKATQTFSIKYNNNNTPTFSGDLRAGEKYTFDFHINFYDFATITIVQKREGEEELRIEYLNIPVEKRSEDHFERHF,not soluble
14,MSLVKIKIFVNELLTDVEENTTAYKVRDSYNNKCDVLVLNGYPIKTDMTLCENDKLTLIQKGVKPSLDELESLLIARHTPNIHNKLKKGKVAILGLGGLGSNIAISLARIGVGELLLIDYDVVEPSNLNRQQYFIDDIGKLKTDAMIENIKKINPFIKLNKRDIFLNKNNMDTIKDSDLIIEAFDDASCKAQVCNYVLINLKDKYLIASSGMAGYYDSNIITTKKIKDRFYICGDFVNEAKFGEGLMAPRVAICANHMANLATQILIDMEGHHHHHH,soluble
15,DPQPDPLQPDVYLLVNARAAHTNGEESINMDAEDFEDRVHSLAMLVFDSNTGEKVAEHFSSSIGSGTSTYVFTVKLKPGQRD,not soluble
16,MRGSHHHHHHGMASMTGGQQMGRDLYDDDDKDHPFMAQRTEESKGKLSFATQGGQGEGSYSKSNSAASKTLSACIVPSLEEFLLHHFSPPQGAGPIYYADFGCAVGANTIGLAKFVTETLKSRPEISERDFLCYFADLPTNDFNTLFNQFPPLASRDGGNGNVEERTWFAAGVPGNQFNRMFPRSSLHVAITTLTLHYLPEIPKSITDESSPTFNRGCISSHGASPAVAEVFADTSREGLRKFFQCRAEELASGGVLAFYFPSRPDRAHPERQMSEDSMQLALWKVETAWRELVAEGVMPEELLDTFNVPNCHPSKEEVEEVVDHETSCFHIQKLEYIHKHPFSPPNPELILKDAQSYAKWWTGILRGGLGGMLSAHMAPELTEALMERFSKHIEKDYLEKKPQFPMIMNICMGILIRK,soluble
17,SEWNLRRMESELRQINPDLLQPSKSFKKPSSGTITINVGGYLYAAQRHTLAKHPGSLLEEMVTGKKPVLHVDSMGNTFIDRDGPIFRHILNFLRLGELVLPEDFKETELLRREANFYRLSELAQALQDWEQQQATQREPAFLEVTDSHERSQGLRVYCSDNTFIEKVKNRLVQISKSRLDGFPEEFEVSSNIIQFRHFIKSEQGSRLVLKQDSTFLCTLECLKLETVMLALKGGFRLITSLDSSRGSVVQCEALHFVK,soluble
18,MAVSHSVKERTISENSLIILLQGLQGRVTTVDLRDESVAHGRIDNVDAFMNIRLAKVTYTDRWGHQVKLDDLFVTGRNVRYVHIPDDVNITSTIEQQLQIIHRVRNFGGKGQGRWEFPPKNCK,not soluble
19,MGSDKIHHHHHHMPNKDIDDLVRFLKDKQISTITKKYHSYLTFHGLKAANVFILKEGIIKTSVILQDGREFNISYINQPDVISLLHDEALQYDEQPFNVRIESETATFYQVNRVEFWQYVNAKSELQNYVKQYYRHRLSETFARIQRLTMNGKMGALANFLHDIAEKFGRDLPDEAGVLIDFNVTNEDIAGFCGIANQTSVSRMMRKLKLEDIIDFGMSNDGKRRIIITNMKKLDDYIAY,not soluble
20,MGSDKIHHHHHHMLYRQKVLLALIDVFGGTIDRLYLQKMLFLLSQRQEKPIYEFVPYYYGGFSFTAQWDINALFRKGFLAVDKHTVTLVQKHPQLFDSVTERDMHFLHELCQQYRYKARNDLLRELYEQYPYYAQQSKILDEILDDEAKRRIKQCQDEESRIVLFTIGYEGRSLENYLNTLIRNGIKILVDVRNNPVSMKPGFSKSQLRTYCENLGIGYIHIPEVGIVSELRKNLKSQEDYEELFAAYRREILPTTVSFQQRILNILLCYHRIALTCFEAESQRCHRSHLADAISKLPEFSYEVVHL,not soluble
21,MGYVPIKNDYNEAQNKDSQSFLIMGLDNTIERKLGTTRTDAMMVITVNNKTKKITYLSLPRDSFVQIDAKNYQGMQRIEAAYTYDGPTASVNTVEKLLNIPINHYVVFNFLSFIKLIDAVGGIDVNVKQAFDGVTKDGPGSIHFDAGKQHLDGTKALSYARERHSDNDIMRGFRQQEIIQAVEDKLKSGQSIMKIMDIIDSLNGNIQTDVDSNELTHLVKEGLTWTNYDKQQLSFDWRTFSNEGRSMVELYPDSIENVRHQLRVSLNLEKPDERDQDGYVFHTNGEFLYQSDYTVQDEAAEENEMTSINGNTYIGVPGNTQTGPLPSVKTENGFIKLEHHHHHH,soluble
22,TAQFSWDTQLNFSQNKSKIIELLPGKPGMQYALGGSDALQVYAVAGGAYGEIWGTKYQRVEEGEFKGQLLLNESGLPQATSDKHKIGEQQPDFLLGWTNTFNYKNFTLSFLIDGRFGGDIFSFTNMNLQRSGIAECTAPGGKREDIVVAGVIKDGNGYKVNDQSVSLERYYKALATGRAGISEAYIYDATNIRLRNIALSYRFPSSMLKKTPFQQVKLGFTVNNVWMISSHLDGIDPESVYATSTNATGLENSSAPTSRSYLFNVTLGF,not soluble
